Reference: patent US20250027068

Target: pooled human IgG (human IgG1,2,3 and 4)

| Protein | Enzyme Activity Endpoint Assay (purified): Fab′2 [ng/µL] | Enzyme Activity Endpoint Assay (purified): Fc [ng/µL] | Enzyme Activity Endpoint Assay (purified): IgG [ng/µL] | Enzyme Activity Endpoint Assay (purified): scIgG [ng/µL] |
| --- | --- | --- | --- | --- |
| PRT-520 (protein) MVTSVWTKGVTPPTDFRKIVDGNIAYYHAPYKAGQGWYDITKAFDGGDNLLCGAATAGNMLHWWFDQNKEYIEAYLKKHPEKQKIIFNNQELFDLKAAINTKGSQKNSELFNYFRDKAFPNLSARRLGVFPDLVLDMFINGYYLNVTKTQTTDVNRTYQEKDKRGGIFDAVFTRGVQSKLLTSRHDLKNKGLKEISDLIKQELTEGKALGLSHTYANVRINHVINLWGADFDSDGNLKAIYVTDSDTNASIGMKKYFVGVNSAGKVAISAKEIKEDNIGAQVLGLFTLSTGQDIWNQTNLEHHHHHH | 271 | 265 | 470 | 475 |
| PRT-510 (protein) MITSVWTKGVTPPTDFRKIVDGNIAYYHAPYKAGQGWYDITKAFDGGDDLLCGAATAGNMLHWWFDQNKEEIEAYLKKHPEKQKIMFGDQELLDVRKVINTKDSQTNSALFNYFKDKAFPNLSARRLGVMPDLVLDMFINGYYLNVYKTQTTDVNRTYQTKDRRGGIFDAVFTRGDQSKLLTERHDLKNKTLKEISDLIKQELTEGKALGLSHTYANVRINHVINLWGADFDSNGNLEAIYVTDSDSNASIGMKKYFVGVNSAGKVAISAKEIKEDNIGAQVLGLFTLSTGQDIWNQTNLEHHHHHH | 51 | 29 | 0 | 0 |
| PRT-636 (protein) MQITSVWTKGVTPLTMDQFRNYNYDVIHAPYKPGQGWYDITKAFDGKDNLLCGAATAGNMLHWWFDQNKTEIEAYLSKHPEKQKIIFNNQELFDLKAAIDTKDSQTNSQLFNYFRDKAFPNLSARQLGVMPDLVLDMFINGYYLNVFKTQSTDVNRPYQDKDKRGGIFDAVFTRGDQTTLLTARHDLKNKGLNDISTIIKQELTEGKALALSHTYANVSISHVINLWGADFNAEGNLEAIYVTDSDANASIGMKKYFVGINAHGHVAISAKKIEGENIGAQVLGLFTLSSGKDIWQKLSLEHHHHHH | 12 | 17 | 0 | 0 |
| PRT-447 (protein) MVTSVWTKGVTPPTDFIKGEDVFHAPYKAGQGWYDITKAFDGGDDLLCGAATAGNMLHWWFDQNKDQIEAYLKEHPEKQKINFNGEQMFDVKEAIDTKDDQTNSELFNYFKEKAFPYLSTKHLGVFPDHVLDMFINGYRLSLTNHGPTPVKEGSKDPRGGIFDAVFTRGDQSKLLTSRHDFKEKTLKEISDLIKQELTEGKALALSHTYANVRINHVINLWGADFDSNGNLEAIYVTDSDSNASIGMKKYFVGVNSAGKVAISAKEIEDDNIGAQVLGLFTLSTGQDIWNQTNLEHHHHHH | 376 | 255 | 445 | 0 |
| PRT-521 (protein) MVTSVWTKGVTPPADFTQGEDVFHAPYVANQGWYDITKTFNGKDNLLCGAATAGNMLHWWFDQNKEYIEAYLKKHPEKQKIIFNNQELFDLKAAINTKGSQKNSELFNYFRDKAFPNLSARRLGVFPDLVLDMFINGYYLNVTKTQTTDVNRTYQEKDKRGGIFDAVFTRGVQSKLLTSRHDLKNKGLKEISDLIKQELTEGKALGLSHTYANVRINHVINLWGADFDSDGNLKAIYVTDSDTNASIGMKKYFVGVNSAGKVAISAKEIKEDNIGAQVLGLFTLSTGQDIWNQTNLEHHHHHH | 0 | 13 | 0 | 0 |
